This experiment addresses recombinant Xenopus TACC3/maskin (TACC3-WT), full length, His6-tagged (Xenopus laevis) (UniProt Q9PTG8). The experiment in a line: sucrose density gradient centrifugation + SEC.

The stoichiometry N is a count of units in the complex or per binding partner.

Sequence of recombinant Xenopus TACC3/maskin (TACC3-WT), full length, His6-tagged (Xenopus laevis) (Q9PTG8 whole entry): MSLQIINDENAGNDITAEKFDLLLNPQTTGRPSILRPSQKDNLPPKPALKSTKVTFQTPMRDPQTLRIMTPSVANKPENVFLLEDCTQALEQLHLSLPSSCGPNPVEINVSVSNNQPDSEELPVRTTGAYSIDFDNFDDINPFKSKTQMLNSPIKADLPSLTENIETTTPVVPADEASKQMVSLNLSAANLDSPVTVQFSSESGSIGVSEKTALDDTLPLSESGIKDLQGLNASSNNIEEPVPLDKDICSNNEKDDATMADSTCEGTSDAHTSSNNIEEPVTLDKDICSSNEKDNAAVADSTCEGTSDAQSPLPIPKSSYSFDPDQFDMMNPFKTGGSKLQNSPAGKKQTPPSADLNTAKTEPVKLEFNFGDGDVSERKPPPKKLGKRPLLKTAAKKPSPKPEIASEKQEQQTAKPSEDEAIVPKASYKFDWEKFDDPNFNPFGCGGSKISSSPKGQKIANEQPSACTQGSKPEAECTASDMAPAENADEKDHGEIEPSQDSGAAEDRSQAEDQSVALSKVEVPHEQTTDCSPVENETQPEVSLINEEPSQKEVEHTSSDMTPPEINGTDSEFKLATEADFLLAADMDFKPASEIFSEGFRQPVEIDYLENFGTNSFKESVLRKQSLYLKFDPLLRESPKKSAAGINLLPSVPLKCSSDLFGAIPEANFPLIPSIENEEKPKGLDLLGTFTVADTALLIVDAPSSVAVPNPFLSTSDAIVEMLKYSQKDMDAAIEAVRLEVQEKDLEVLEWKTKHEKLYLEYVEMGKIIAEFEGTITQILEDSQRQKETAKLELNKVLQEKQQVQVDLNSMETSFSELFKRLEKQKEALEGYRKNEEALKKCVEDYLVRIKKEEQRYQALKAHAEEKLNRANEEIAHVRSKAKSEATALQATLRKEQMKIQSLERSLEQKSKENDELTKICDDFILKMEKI

On to recombinant XMAP215, Q9PT63 1-2065, for which the stoichiometry N was found to be 1.

(Values after paper PMC2171544.)
